{"source": "patent US8188039", "about": "(ARK THERAPEUTICS GROUP, dated 2012)", "molecular_target": "the molecule itself", "assay": "homodimer formation, SDS-PAGE on non-reducing conditions", "procedure": "Purified proteins were analyzed by SDS-PAGE in both denaturing and non-denaturing conditions, staining the gels with Silver Snap Stain KitII (Pierce) or Page Blue Protein Staining Solution (Fermentas). Alternatively, proteins were transferred to nitrocellulose membrane and detected using a VEGF-D monoclonal antibody (MAB286, R&D Systems).\nCovalent dimer formation: The ability of VEGF-$D^{\\Delta N \\Delta C}$, VEGF-$D^{\\Delta N \\Delta C}$25A and VEGF-$D^{\\Delta N \\Delta C}$53A to form covalent dimers was evaluated by SDS-PAGE on non-reducing conditions. […] As expected, covalent dimer formation of VEGF-$D^{\\Delta N \\Delta C}$53A was hindered.", "data": [{"protein": "VEGF-D^ΔNΔC (ligand, not shown: small tags and cut ends, Amino acids 93-201 of wild-type VEGF-D with N-terminal Flag-tag and C-terminal 6xHis; found partially as a covalent dimer, otherwise non-covalent dimer or monomer; also called mature form of VEGF-D; native VEGF-D^ΔNΔC) FYDIETLKVIDEEWQRTQCSPRETCVEVASELGKSTNTFFKPPCVNVFRCGGCCNEESLICMNTSTSYISKQLFEISVPLTSVPELVPVKVANHTGCKCLPTAPRHPYSHHHHHH", "values": [{"measurement": "binding result", "value": "binds"}]}, {"protein": "VEGF-D^ΔNΔC25A (ligand, not shown: small tags and cut ends, Formed more covalent dimer than the native form; also called Cys25 to Ala mutant of VEGF-D^ΔNΔC) FYDIETLKVIDEEWQRTQCSPRETAVEVASELGKSTNTFFKPPCVNVFRCGGCCNEESLICMNTSTSYISKQLFEISVPLTSVPELVPVKVANHTGCKCLPTAPRHPYSHHHHHH", "values": [{"measurement": "binding result", "value": "binds"}]}]}
